Data taken from article PMC8754659.

Target: SpyCas9 (Streptococcus pyogenes, UniProt Q99ZW2 1-1368)
Assay: EMSA

Chain of SpyCas9 (Q99ZW2 whole entry): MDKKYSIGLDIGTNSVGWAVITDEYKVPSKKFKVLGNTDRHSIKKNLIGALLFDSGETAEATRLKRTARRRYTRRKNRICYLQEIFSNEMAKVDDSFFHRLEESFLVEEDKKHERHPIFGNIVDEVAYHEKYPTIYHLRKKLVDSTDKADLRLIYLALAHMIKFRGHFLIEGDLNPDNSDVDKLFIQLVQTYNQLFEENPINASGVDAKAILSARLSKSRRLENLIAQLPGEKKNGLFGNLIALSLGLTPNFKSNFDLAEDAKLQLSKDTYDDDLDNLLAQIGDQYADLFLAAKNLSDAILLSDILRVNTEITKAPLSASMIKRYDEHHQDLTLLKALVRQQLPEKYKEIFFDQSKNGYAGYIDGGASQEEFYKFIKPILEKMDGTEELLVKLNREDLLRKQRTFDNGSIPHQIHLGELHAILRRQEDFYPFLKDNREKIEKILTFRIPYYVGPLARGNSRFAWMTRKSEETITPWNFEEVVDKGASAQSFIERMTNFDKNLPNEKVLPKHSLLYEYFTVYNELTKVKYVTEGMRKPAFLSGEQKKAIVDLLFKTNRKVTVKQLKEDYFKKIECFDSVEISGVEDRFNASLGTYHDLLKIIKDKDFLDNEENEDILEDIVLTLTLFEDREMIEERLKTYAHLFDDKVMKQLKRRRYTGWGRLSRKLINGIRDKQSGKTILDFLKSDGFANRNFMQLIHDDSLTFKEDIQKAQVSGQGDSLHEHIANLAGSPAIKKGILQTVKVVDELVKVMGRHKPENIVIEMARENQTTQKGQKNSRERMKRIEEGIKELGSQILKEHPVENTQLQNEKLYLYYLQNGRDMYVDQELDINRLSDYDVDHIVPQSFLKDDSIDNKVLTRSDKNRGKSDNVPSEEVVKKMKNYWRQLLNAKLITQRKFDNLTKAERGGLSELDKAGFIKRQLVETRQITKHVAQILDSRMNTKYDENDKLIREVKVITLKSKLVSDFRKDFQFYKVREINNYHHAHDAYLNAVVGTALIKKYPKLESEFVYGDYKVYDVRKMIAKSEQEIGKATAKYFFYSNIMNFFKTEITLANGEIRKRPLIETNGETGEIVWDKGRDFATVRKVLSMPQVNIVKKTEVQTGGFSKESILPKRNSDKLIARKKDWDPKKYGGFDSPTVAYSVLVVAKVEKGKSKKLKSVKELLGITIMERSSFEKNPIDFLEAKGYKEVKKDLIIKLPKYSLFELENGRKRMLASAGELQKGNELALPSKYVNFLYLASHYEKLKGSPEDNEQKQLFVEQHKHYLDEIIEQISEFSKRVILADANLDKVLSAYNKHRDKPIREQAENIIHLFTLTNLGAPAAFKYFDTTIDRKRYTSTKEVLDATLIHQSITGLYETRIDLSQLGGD

B1: sgRNA (20 nt spacer) + FAM target DNA 38 bp (mixed)
DNA 1: ATTGCCGTCAGGAAATTAGGTGCGCTTAGCTGGTATTG
DNA 2: CAATACCAGCTAAGCGCACCTAATTTCCTGACGGCAAT
binding result: binds
